In patent publication US20180291110A1 (Hoffmann-La Roche, published 2018):
Positions count from the first letter of the chain named.

B1: 2/99 VH13/VL5 (antibody, V domains shown)
VH: QVQLQESGPGLVKPSETLSLTCTVSGFSLSSYAMSWIRQPPGKGLEWIGYIWSGGSTDYNPSLKSRVTISVDTSKNQVSLKLSSVTAADTAVYYCARRYGTSYPDYGDANGFDPWGQGTLVTVSS
VL: DIQMTQSPSSLSASVGDRVTITCRASQSISSYLSWYQQKPGKAPKLLIYRASTLASGVPSRFSGSGSGTDFTLTISSLQPEDFATYYCQQSYSSSNVDNTFGGGTKVEIK
B2: 2/99 VH6/VL6 (antibody, V domains shown)
VH: QQLVETGGGLIQPGGSLRLSCAASGFSLSSYAMSWVRQAPGKGLEWIGYIWSGGSTDYADSVKGRFTISRDNSKNTLYLQMNSLRAEDTAVYYCARRYGTSYPDYGDANGFDPWGQGTLVTVSS
VL: B1 VL with D1A, M4L
B3: 2/99 VH2/VL6 (antibody, V domains shown)
VH: EVQLVETGGGLIQPGGSLRLSCAASGFSLSSYAMSWVRQAPGKGLEWVGYIWSGGSTDYADSVKGRFTISRDNSKNTLYLQMNSLRAEDTAVYYCARRYGTSYPDYGDANGFDPWGQGTLVTVSS
VL: B1 VL with D1A, M4L
B4: 2/99 VH1/VL6 (antibody, V domains shown)
VH: B2 VH with Q1V, I47V
VL: B1 VL with D1A, M4L
B5: 2/99 VH5/VL6 (antibody, V domains shown)
VH: B2 VH with Q2S, L3M, V4E, I47V, Q116P
VL: B1 VL with D1A, M4L
B6: 2/99 VH8/VL6 (antibody, V domains shown)
VH: QQLVETGGGLIQPGGSLRLSCAASGFSLSSYAMSWVRQAPGKGLEWIGYIWSGGSTDYASWAKGRFTISKTSTTLYLQMNSLRAEDTAVYYCARRYGTSYPDYGDANGFDPWGQGTLVTVSS
VL: B1 VL with D1A, M4L
B7: 2/99 VH21/VL6 (antibody, V domains shown)
VH: QSMQESGPGLVKPSQTLSLTCTVSGFSLSSYAMSWIRQHPGKGLEWIGYIWSGGSTDYASWAKSRVTISVDTSKNQVSLKLSSVTAADTAVYYCARRYGTSYPDYGDANGFDPWGQGTLVTVSS
VL: B1 VL with D1A, M4L
B8: 2/99 VH16/VL5 (antibody, V domains shown)
VH: B7 VH with S2Q, M3L, Q15E, I36V, H39P, A59N, S60P, W61S, A62L, Q116P
VL: B1 VL
B9: 2/99 VH22/VL5 (antibody, V domains shown)
VH: B7 VH with I36V
VL: B1 VL
B10: 2/99 VH11/VL6 (antibody, V domains shown)
VH: B2 VH with V4L, T6S, I11V, I47V
VL: B1 VL with D1A, M4L
B11: 2/99 VH23-DANG/VL5 (antibody, V domains shown)
VH: QSMQESGPGLVKPSQTLSLTCTVSGFSLSSYAMSWIRQHPGKGLEWIGYIWSGGSTDYASWAKSRVTISKTSTTVSLKLSSVTAADTAVYYCARRYGTSYPDYGDANGFDPWGQGTLVTVSS
VL: B1 VL
B12: 2/99 VH19/VL5 (antibody, V domains shown)
VH: B7 VH with S60P, W61S, A62L, V77F
VL: B1 VL
B13: 2/99 VH15/VL5 (antibody, V domains shown)
VH: B7 VH with S2Q, M3L, Q15E, I36V, H39P, A59N, S60P, W61S, A62L
VL: B1 VL
B14: 2/99 VH12/VL6 (antibody, V domains shown)
VH: B1 VH with V78F
VL: B1 VL with D1A, M4L
B15: 2/99 VH19/VL6 (antibody, V domains shown)
VH: B7 VH with S60P, W61S, A62L, V77F
VL: B1 VL with D1A, M4L
B16: 2/99 VH20/VL6 (antibody, V domains shown)
VH: B7 VH with S60P, W61S, A62L
VL: B1 VL with D1A, M4L
B17: 2/99 VH9/VL6 (antibody, V domains shown)
VH: B2 VH with V4L, T6S, I11V, S27T, L28F, I47V, R96K
VL: B1 VL with D1A, M4L
B18: 2/99 VH17/VL5 (antibody, V domains shown)
VH: QQLQESGPGLVKPSETLSLTCTVSGFSLSSYAMSWVRQPPGKGLEWIGYIWSGGSTDYNPSLKSRVTISKDTSKNQVSLKLSSVTAADTAVYYCARRYGTSYPDYGDANGFDPWGPGTLVTVSS
VL: B1 VL
B19: 2/99 VH16/VL6 (antibody, V domains shown)
VH: B18 VH with K70V
VL: B1 VL with D1A, M4L
B20: 2/99 VH18/VL6 (antibody, V domains shown)
VH: B1 VH with E16Q, P40H, N60A, V78F
VL: B1 VL with D1A, M4L
B21: 2/99 VH21/VL5 (antibody, V domains shown)
VH: B7 VH
VL: B1 VL
B22: 2/99 VH13/VL6 (antibody, V domains shown)
VH: B1 VH
VL: B1 VL with D1A, M4L
B23: 2/99 VH15/VL6 (antibody, V domains shown)
VH: B18 VH with K70V, P116Q
VL: B1 VL with D1A, M4L
B24: 2/99 VH18/VL5 (antibody, V domains shown)
VH: B1 VH with E16Q, P40H, N60A, V78F
VL: B1 VL
B25: 2/99 VH17/VL6 (antibody, V domains shown)
VH: B18 VH
VL: B1 VL with D1A, M4L
B26: 2/99 VH20/VL5 (antibody, V domains shown)
VH: B7 VH with S60P, W61S, A62L
VL: B1 VL

molecular target: T1, human transferrin receptor (recombinant, for surface plasmon resonance) (human, UniProt P02786 89-760); experiment: SPR 25C
T1 construct: also called huTfR; human transferrin receptor-biotinylated
T1 sequence (P02786 89-760 limits assumed): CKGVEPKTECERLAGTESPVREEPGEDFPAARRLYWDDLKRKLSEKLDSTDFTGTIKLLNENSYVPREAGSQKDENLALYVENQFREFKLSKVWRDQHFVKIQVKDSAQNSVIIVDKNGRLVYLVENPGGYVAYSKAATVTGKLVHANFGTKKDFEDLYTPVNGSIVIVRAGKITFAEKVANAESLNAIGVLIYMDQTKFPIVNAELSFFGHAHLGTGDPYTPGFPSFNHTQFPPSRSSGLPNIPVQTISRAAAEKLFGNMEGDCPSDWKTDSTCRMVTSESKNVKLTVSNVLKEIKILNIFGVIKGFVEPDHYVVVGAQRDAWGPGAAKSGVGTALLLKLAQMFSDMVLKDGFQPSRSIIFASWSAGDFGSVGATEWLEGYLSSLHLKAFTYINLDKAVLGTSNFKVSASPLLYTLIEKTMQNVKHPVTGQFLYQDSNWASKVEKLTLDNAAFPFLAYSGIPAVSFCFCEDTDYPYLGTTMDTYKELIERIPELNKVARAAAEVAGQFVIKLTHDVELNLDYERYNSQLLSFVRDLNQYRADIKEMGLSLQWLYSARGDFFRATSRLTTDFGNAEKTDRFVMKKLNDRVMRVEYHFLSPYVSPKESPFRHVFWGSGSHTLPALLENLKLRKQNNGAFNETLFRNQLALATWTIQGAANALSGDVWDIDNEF

Question: Which koff does the source give for B1 here?
Answer: 0.00218 s⁻¹

Question: Which koff does the source give for B2 here?
Answer: 0.00306 s⁻¹

Question: For B3, which koff is on record?
Answer: 0.00555 s⁻¹

Question: B4 was tested. Which koff did it give?
Answer: 0.00538 s⁻¹

Question: For B5, which koff is on record?
Answer: 0.00464 s⁻¹

Question: Which koff does the source give for B6 here?
Answer: 0.0014 s⁻¹

Question: How did the koff turn out when B7 was run?
Answer: 0.00207 s⁻¹

Question: Which koff does the source give for B8 here?
Answer: 0.00223 s⁻¹

Question: B9 was tested. Which koff did it give?
Answer: 0.00141 s⁻¹

Question: For B10, which koff is on record?
Answer: 0.00671 s⁻¹

Question: For B11, which koff is on record?
Answer: 0.00088 s⁻¹

Question: With B12 as the binder, how does the koff read?
Answer: 0.001 s⁻¹

Question: B13 was tested. Which koff did it give?
Answer: 0.00214 s⁻¹

Question: With B14 as the binder, how does the koff read?
Answer: 0.00705 s⁻¹

Question: How did the koff turn out when B15 was run?
Answer: 0.001 s⁻¹

Question: With B16 as the binder, how does the koff read?
Answer: 0.00606 s⁻¹

Question: With B17 as the binder, how does the koff read?
Answer: 0.00683 s⁻¹

Question: Which koff does the source give for B18 here?
Answer: 0.00123 s⁻¹

Question: B19 was tested. Which koff did it give?
Answer: 0.00339 s⁻¹

Question: With B20 as the binder, how does the koff read?
Answer: 0.00674 s⁻¹

Question: B21 was tested. Which koff did it give?
Answer: 0.00137 s⁻¹

Question: Which koff does the source give for B22 here?
Answer: 0.00365 s⁻¹

Question: For B23, which koff is on record?
Answer: 0.0035 s⁻¹

Question: B24 was tested. Which koff did it give?
Answer: 0.00349 s⁻¹

Question: With B25 as the binder, how does the koff read?
Answer: 0.00171 s⁻¹

Question: With B26 as the binder, how does the koff read?
Answer: 0.00352 s⁻¹
